For this data set, the target named is T1, PBX1 (residues 233-319) (mouse/human, UniProt P40424 P40424:233-319).
T1 sequence: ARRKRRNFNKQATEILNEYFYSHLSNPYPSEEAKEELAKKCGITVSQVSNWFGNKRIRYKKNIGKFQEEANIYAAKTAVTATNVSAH
Kind of data set: EMSA; binary PBX1/DNA complex; inhibited by compound 31, not by compound 15. As to conditions: label: 32P (Klenow fill-in with alpha-32P-dCTP); annealed with overhangs extended by Klenow. (In EMSA bound probe runs differently from free probe, usually more slowly.)

B1: HOXPBX-CT probe (dsDNA)
DNA 1: CTCTCCTTTTGATTGATTAA
DNA 2: AGAGCTTAATCAATCAAAAGG
With B1, the binding result was “binds”.

Source of the values: US20050153366, “Protein-protein interaction antagonist screening libraries based upon 1,4-disubstituted naphthalenes and related scaffolds” (published 2005).
